Data from publication PMC6868441 (Nucleic Acids Research, 2019).

Columns and labels:
ArlR full length = molecular target: T1, ArlR full length (Staphylococcus aureus, UniProt Q9KJN4 1-219); assay: EMSA
T1 sequence: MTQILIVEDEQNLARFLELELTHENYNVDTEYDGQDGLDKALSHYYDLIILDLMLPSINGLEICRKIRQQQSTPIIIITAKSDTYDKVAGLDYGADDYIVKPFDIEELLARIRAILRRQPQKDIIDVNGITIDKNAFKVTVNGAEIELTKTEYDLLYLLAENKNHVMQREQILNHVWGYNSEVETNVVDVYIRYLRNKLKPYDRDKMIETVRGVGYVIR

SEC = molecular target: the molecule itself; assay: SEC

B1: Position 1,4&6 mutation 24 bp (dsDNA)
DNA 1: TGCTATTCTTTTAATTGGAAAGAG
DNA 2: CTCTTTCCAATTAAAAGAATAGCA
ArlR full length
  binding result: no binding

B2: ArlR receiver domain (amino acids 1–121) (domain or fragment, S. aureus, UniProt Q9KJN4 1-121, looked up)
chain: MTQILIVEDEQNLARFLELELTHENYNVDTEYDGQDGLDKALSHYYDLIILDLMLPSINGLEICRKIRQQQSTPIIIITAKSDTYDKVAGLDYGADDYIVKPFDIEELLARIRAILRRQPQ
SEC
  stoichiometry N: 2

B3: ArlR-BdDNA-wt 24 bp (dsDNA)
DNA 1: TGATAGTATTTTAATTTGCAATAG
DNA 2: CTATTGCAAATTAAAATACTATCA
ArlR full length
  binding result: binds
